Measured values as given in patent US7732178B2, “Laccase enzymes and their uses” (AB Enzymes Oy, priority 2004, dated 2010).
Entries after “also recorded” stand apart in the source; their conditions may differ.

Key:
Decolorization of dyes [1] = experiment: Decolorization of dyes; set-up: key to Decolorization of Indigocarmine, Time 30 min / Decolorization of Indigocarmine, Time 60 min: −: no visually detectable change; +: visually detectable fading of the colour; ++: considerable fading of the colour; +++: complete/almost complete decolorization; details: for Decolorization of Indigocarmine, Time 30 min / Decolorization of Indigocarmine, Time 60 min: dye 5 mg/50 ml, enzyme 100 nkat/50 ml, 50° C., pH 6; for decolorization of Indigocarmine: in the presence of the mediator
Procedure: (§1) The recombinant laccases CtLcc1, TaLcc2 and TaLcc4, derived from Trichoderma strains (Example 7) were tested for their ability to decolorize different dyes in the presence of the methyl syringate mediator (Example 7) or without it. The experiments were carried out in 100 ml shake flasks containing 50 ml of dye dissolved in citrate phosphate buffer pH 6. Dye concentration 5 mg/50 ml was used. Enzyme was dosed 100 nkat per 50 ml and the mediator 5 mg per 50 ml. Control samples contained only dye solution. The shake flasks were incubated at 50° C. for 30, 60 and 120 minutes. Samples of 3.5 ml were taken in test tubes for visual evaluation.

[2] = Redox potential of T1 copper, photometric copper titration; type: physicochemical; details: 0.1 M KH2PO4 (pH 6.0)
Procedure: The purified recombinant Thielavia and Chaetomium laccases were characterized in terms of pH optimum, thermal stability, and pI as described in Example 2. The molecular weight was determined by MALDI-TOF mass spectrometry on a Ultraflex™ time-of-flight instrument (BrukerDaltonics, Germany) as previously described (Palonen et al., 2003). The redox-potentials of the T1 coppers of for CtLcc, and TaLcc2 laccases were determined by photometric copper titration in 0.1 M KH2PO4 (pH 6.0) as described by Xu et al. (1996) using the redox titrant couple K3Fe(CN)6/K4Fe(CN)6. The redox potential of TaLcc1 was determined with a combined Pt—AgCl/KCl microelectrode at pH 5.0 according to Sigoillot et al (2004). The characterization results are collected to Table 14.

[3] = Specific activity towards di-methoxy-phenol (DMP); type: biochemical; details: 25 mM MES buffer, pH 5.5
Procedure: (§2) Specific activities of the purified T. arenaria and C. thermophilum laccases were determined towards different laccase substrates.

[4] = Stain removal, tea soiling; set-up: key to Tea L* / Tea a* / Tea b*: CIE L*a*b* color coordinates from reflectance; details: for Tea L* / Tea a* / Tea b*: 60 min, pH 6; for removal of tea soiling with the mediator: CtLcc1 at 60° C., TaLcc2 at 50° C.
Procedure: Laccases CtLcc1, TaLcc2, TaLcc4 and Denilite II Base (Example 7) were tested for their ability to remove stains. The following artificially soiled test cloths were used: grass soiling (Art.164, EMPA Testmaterialen, Germany), tea soiling (Art. 167, EMPA Testmaterialen, Germany). The fabric was cut in 5.8×5.8 cm swatches. Laccase treatments were performed in LP-2 Launder Ometer as follows. About 5 g of soiled fabrics were loaded into 1.2 liter containers containing 150 ml Mc Ilvaine's citrate phosphate buffer pH 6 and the containers were temperated. Enzyme with or without the mediator (methyl syringate, DeniLite II Assist, Novozymes) was added as laccase activity units (Example 7). Enzyme was dosed 200 nkat/g and the mediator 10 mg/g on the weight of fabric, except at 40° C. dosages of 20 nkat/g and 2 mg/g were also used. The Launder Ometer was run at 40, 50 or 60° C. and pH 6 for 60 min. After that the swatches were carefully rinsed under running water and in shake flasks containing warm water and dried in the air.
The stain removal effect was evaluated by measuring the colour as reflectance values using L*a*b* color space coordinates (Example 7). The colour of the swatches was measured before and after the laccase treatment.

Decolorization of dyes [5] = experiment: Decolorization of dyes; set-up: key to Decolorization of Cibacron Brilliant Red 3B-P, Time 30 min / Decolorization of Cibacron Brilliant Red 3B-P, Time 60 min: −: no visually detectable change; +: visually detectable fading of the colour; ++: considerable fading of the colour; +++: complete/almost complete decolorization; details: for Decolorization of Cibacron Brilliant Red 3B-P, Time 30 min / Decolorization of Cibacron Brilliant Red 3B-P, Time 60 min: dye 5 mg/50 ml, enzyme 100 nkat/50 ml, 50° C., pH 6; for decolorization of Cibacron Brilliant Red 3B-P: in the presence of the mediator
Procedure: as §1

[6] = Isoelectric focusing (pI); type: physicochemical; details: pH range 3-9
Procedure, shortened: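 Purified Thielavia arenaria and Chaetomium thermophilum laccases resolved by isoelectric focusing over pH 3-9. pI read from focused band position.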

[7] = Specific activity towards ABTS; type: biochemical; details: 25 mM succinate buffer pH 4.5, 25° C.
Procedure: The activity assay was carried out in accordance with the method developed by Niku-Paavola et al. (1988). The sample was diluted with 0.025 M succinate buffer, pH 4.5. […] The activity is expressed as nano katals.
as §2

[8] = Specific activity towards guaiacol; type: biochemical; details: 25 mM MES buffer, pH 5.5
Procedure: as §2

[9] = 40° C., enzyme 20 nkat/g + mediator 2 mg/g (Mediator only: 0 nkat/g)
[10] = 40° C., enzyme 200 nkat/g + mediator 10 mg/g (Mediator only: 0 nkat/g), RF5571
[11] = 40° C., enzyme 200 nkat/g + mediator 10 mg/g (Mediator only: 0 nkat/g), RF5573
[12] = 40° C., enzyme 200 nkat/g, mediator 0 mg/g
[13] = 50° C., enzyme 200 nkat/g + mediator 10 mg/g (Mediator only: 0 nkat/g)
[14] = 40° C., enzyme 200 nkat/g + mediator 10 mg/g (Mediator only: 0 nkat/g)
[15] = 60° C., enzyme 200 nkat/g + mediator 10 mg/g (Mediator only: 0 nkat/g)
[16] = 60° C., enzyme 200 nkat/g, mediator 0 mg/g

B1: TaLcc2: Thielavia arenaria ALKO 4197 laccase, SEQ ID NO: 41, produced in Trichoderma reesei (protein)
chain: MLTETLKSRNMLQSILALLATALGSSAFAIPELPEVSLQPRQACENTATSRQCWGDLSIDTNYYEVLPSTGRPPQEYWLSVVEGPCAPDGYNRTCMTFNGTVPGPTLFADWGDELVIHVTNNMVNNGTAIHWHGIRMLNNTLNDGVPGVTQCAIAPGESMTYRFNVTQYGSTWYHSHFSLQYAEGLFGGMILRGPSTANWDEDLGVLFLQDWSHVEAFTRWHEAKAGFPPSLDGGLINGTNTFDCSTLSPTDPKCTGNGKKFETVFEPGKKYLIRLINVAIDGVFQFSIDGHSLTVIATDLVPIVPYTTDSVQITIGQRYDIIVEANATPGNYWMRADWVTACVTNDHPEHMTGIVRYDASSIDPPTSESNVTKTSSCLGEPNEKTIPHLSLDVTNIGGTNVEELSFDTTSGDYFQWTLNTSSLVLDWGNPTMARIFNGDAIFPTEYNVVAVNKTGTGPEWTVLVIQDQSNLPIAHPIHLHGHDFWVLAAEEGVFNGNISSFNTRNPARRDVATLPGRGYLAIAFQIDNPGTWLTHCHIAWHASQGLSLEFVESQSEIVTDEVSRGVFNDVCASWRAHDPLWEQEDSGI
modifications: Thielavia arenaria ALKO4197; (1)..(589) Deduced amino acid sequence of Thielavia arenaria ALKO4197 TaLacc2
Decolorization of dyes [1]; Table 24, mediator 0 mg/50 ml
  Decolorization of Indigocarmine, Time 30 min: −
  Decolorization of Indigocarmine, Time 60 min: −
Decolorization of dyes [1]; Table 24, mediator 5 mg/50 ml
  Decolorization of Indigocarmine, Time 30 min: +++
  Decolorization of Indigocarmine, Time 60 min: +++
Decolorization of dyes [1]
  decolorization of Indigocarmine: very effectively; also recorded: to great extend or completely
[2]
  E^0: 450 mV
[3]
  Specific activity on DMP: 75 nkat/mg
[4]; [9]
  Tea L*: 75.61
  Tea a*: 5.24
  Tea b*: 23.66
[4]; [10]
  Tea L*: 77.28
  Tea a*: 4.36
  Tea b*: 24.32
[4]; [11]
  Tea L*: 77.04
  Tea a*: 4.41
  Tea b*: 24.36
[4]; [12]
  Tea L*: 76.09
  Tea a*: 5.37
  Tea b*: 22.59
[4]; [13]
  Tea L*: 77.73
  Tea a*: 3.99
  Tea b*: 22.89
[4]
  removal of tea soiling with the mediator: effective
Decolorization of dyes [5]; Table 24, mediator 0 mg/50 ml
  Decolorization of Cibacron Brilliant Red 3B-P, Time 30 min: −
  Decolorization of Cibacron Brilliant Red 3B-P, Time 60 min: −
Decolorization of dyes [5]; Table 24, mediator 5 mg/50 ml
  Decolorization of Cibacron Brilliant Red 3B-P, Time 30 min: +
  Decolorization of Cibacron Brilliant Red 3B-P, Time 60 min: +
Decolorization of dyes [5]
  decolorization of Cibacron Brilliant Red 3B-P: partly decolorized
[6]
  pI: 3.5
[7]
  Specific activity on ABTS: 360 nkat/mg
[8]
  Specific activity on guaiacol: 40 nkat/mg

B2: CtLcc1: Chaetomium thermophilum ALKO 4265 laccase, SEQ ID NO: 47, produced in Trichoderma reesei (protein)
chain: MKFLTYATALLGALTAVVGAIPTRSGTKKKYIRDGPGPCHTPSNRACWAPGFDINTDYEVNTPNTGVTRNYTLTLTEEDNWTGPDGVVKEKIMLVNGKTLGPTIEANWGDWIEVKVINNLLTNGTSIHWHGIHQKGSNLHDGANGVTECPIPPNGGQRTYRFRAQQYGTSWYHSHFSAQYGNGIVGPIVIHGPASLPYDIDLGPFPLTDYYYKSADELVRHTQNNGPPFSDNVLFNGTGVHPQTGHGQYAKVTLTPGKRHRLRIINMSTENHFQVSLVGHQFTVIAADMVPVHSYTTDSLFLAVGQRYDVTIDASQTPGNYWFNVTFGGGFACGGSFNPNPAAIFHYEGAPDALPTDPGVPPRDHNCLDTLDLVPVVPRNVQVNQFVKKPENTLPVELSLGGTPLFVWKVNGSAIDVDWGNPVLQYVMDRNTSYRQADNIVEVNGVNQWTYWLIENDPNGAFSLPHPMHLHGHDFLIVGRSPDVPPGSNQRYNFDPATDIYRLRGQNPTRRDVAMLPAGGWLLLAFLTDNPGAWLFHCHIAWHVSGGLSVDFLERPNDLRNSILQHDKDEFNRVCNEWRTYWPNSPHPKIDSGLKHRWVEESEWLVR
modifications: Chaetomium thermophilum ALKO4265; (1)..(607) Deduced amino acid sequence of Chaetomium thermophilum ALKO4265 CtLcc1
Decolorization of dyes [1]; mediator 0 mg/50 ml
  Decolorization of Indigocarmine, Time 30 min: −
  Decolorization of Indigocarmine, Time 60 min: −
Decolorization of dyes [1]; mediator 5 mg/50 ml
  Decolorization of Indigocarmine, Time 30 min: +++
  Decolorization of Indigocarmine, Time 60 min: +++
Decolorization of dyes [1]
  decolorization of Indigocarmine: very effectively; also recorded: to great extend or completely
[2]
  E^0: 480 mV
[3]
  Specific activity on DMP: 290 nkat/mg
[4]; [9]
  Tea L*: 76.34
  Tea a*: 5.10
  Tea b*: 23.89
[4]; [14]
  Tea L*: 77.70
  Tea a*: 4.26
  Tea b*: 24.50
[4]; [12]
  Tea L*: 76.22
  Tea a*: 5.37
  Tea b*: 22.68
[4]; [15]
  Tea L*: 79.76
  Tea a*: 3.52
  Tea b*: 22.16
[4]; [16]
  Tea L*: 77.10
  Tea a*: 4.84
  Tea b*: 21.10
[4]
  removal of tea soiling with the mediator: effective
Decolorization of dyes [5]; mediator 0 mg/50 ml
  Decolorization of Cibacron Brilliant Red 3B-P, Time 30 min: −
  Decolorization of Cibacron Brilliant Red 3B-P, Time 60 min: −
Decolorization of dyes [5]; mediator 5 mg/50 ml
  Decolorization of Cibacron Brilliant Red 3B-P, Time 30 min: +
  Decolorization of Cibacron Brilliant Red 3B-P, Time 60 min: +
Decolorization of dyes [5]
  decolorization of Cibacron Brilliant Red 3B-P: partly decolorized
[6]
  pI: 4.0-4.3
[7]
  Specific activity on ABTS: 705 nkat/mg
[8]
  Specific activity on guaiacol: 85 nkat/mg
